Experimental findings from publication PMC8571087, “Sphingadienine-1-phosphate levels are regulated by a novel glycoside hydrolase family 1 glucocerebrosidase widely distributed in seed plants” (The Journal of Biological Chemistry, 2021) are described below.

Substrate in data set [1]: CCCCCCCCCCCC/C=C/[C@@H](O)C(=O)N[C@@H](CO[C@@H]1O[C@H](CO)[C@@H](O)[C@H](O)[C@H]1O)[C@H](O)/C=C/CC/C=C(\C)CCCCCCCCC
Put plainly: ceramide release by HPLC, Hanes-Woolf plot. The format is biochemical, Oryza sativa. The conditions noted are these: Buffer J pH 5.5 (sodium acetate, sodium cholate, 0.1% Tween 20), 37 °C, 15 min. The text has this: (§1) ceramide release by HPLC, Hanes-Woolf plot on Os3BGlu6 (GCase purified from rice leaves)

Substrate in data set [2]: CCCCCCCCCCCCC/C=C/[C@@H](O)[C@H](CO[C@@H]1O[C@H](CO)[C@@H](O)[C@H](O)[C@H]1O)NC(=O)CCCCCCCCCCC
Nature of the data set: ceramide release by HPLC, Hanes-Woolf plot. The note with it: Buffer J pH 5.5 (sodium acetate, sodium cholate, 0.1% Tween 20), 37 °C, 15 min. The format is biochemical, Oryza sativa.
Excerpt: as §1

Substrate in data set [3]: CCCCCCCCCCCCC/C=C/[C@@H](O)[C@H](CO[C@@H]1O[C@H](CO)[C@@H](O)[C@H](O)[C@H]1O)NC(=O)CCCCCCC
Nature of the data set: ceramide release by HPLC, Hanes-Woolf plot. The format is biochemical, Oryza sativa. The conditions noted are these: Buffer J pH 5.5 (sodium acetate, sodium cholate, 0.1% Tween 20), 37 °C, 15 min.
Excerpt: as §1

Substrate in the data set “purified protein”: O=[N+]([O-])c1ccc(O[C@@H]2O[C@H](CO)[C@@H](O)[C@H](O)[C@H]2O)cc1
Nature of the data set: purified protein. The note with it: Buffer J pH 5.5 (sodium acetate, sodium cholate, 0.1% Tween 20), 37 °C, 15 min.

Substrate in data set [4]: CCCCCCCCC/C=C\CC/C=C/[C@@H](O)[C@H](CO[C@@H]1O[C@H](CO)[C@@H](O)[C@H](O)[C@H]1O)NC(=O)[C@H](O)CCCCCCCCCCCCCC
Nature of the data set: ceramide release by LC-ESI-MS/MS, Hanes-Woolf plot. The format is biochemical, Oryza sativa. The note with it: Buffer J pH 5.5 (sodium acetate, sodium cholate, 0.1% Tween 20), 37 °C, 15 min. The text has this: (§2) ceramide release by LC-ESI-MS/MS, Hanes-Woolf plot on Os3BGlu6 (GCase purified from rice leaves)

Substrate in data set [5]: CCCCCCCCC/C=C/CC/C=C/[C@@H](O)[C@H](CO[C@@H]1O[C@H](CO)[C@@H](O)[C@H](O)[C@H]1O)NC(=O)[C@H](O)CCCCCCCCCCCCCC
Put plainly: ceramide release by LC-ESI-MS/MS, Hanes-Woolf plot. Format: biochemical, Oryza sativa. The conditions noted are these: Buffer J pH 5.5 (sodium acetate, sodium cholate, 0.1% Tween 20), 37 °C, 15 min.
Excerpt: as §2

Substrate in data set [6]: CCCCCCCCCCCCC/C=C/[C@@H](O)[C@H](CO[C@@H]1O[C@H](CO)[C@@H](O)[C@H](O)[C@H]1O)NC(=O)CCCCCNc1ccc([N+](=O)[O-])c2nonc12
Nature of the data set: hydrolysis, Hanes-Woolf plot. The conditions noted are these: Buffer J pH 5.5 (sodium acetate, sodium cholate, 0.1% Tween 20), 37 °C, 15 min, labelled compound (NBD). Format: biochemical, Oryza sativa.

For orientation: Km means the substrate concentration at which the rate is half of its maximum. Usually kcat stands for the number of substrate molecules converted per active site and unit of time at saturation. A word on the kcat/Km: it is the second-order rate constant that governs catalysis at low substrate concentration.

B1: Os3BGlu6 (GCase purified from rice leaves) (Oryza sativa Japonica Group) (protein)
chain: QQSGGGLTRGSFPEGFVFGTASAAYQYEGAVKEDGRGQTIWDTFAHTFGKITDFSNADVAVDQYHRFEEDIQLMADMGMDAYRFSIAWSRIYPNGVGQVNQAGIDHYNKLIDALLAKGIQPYVTLYHWDLPQALEDKYKGWLDRQIVDDFAAYAETCFREFGDRVKHWITLNEPHTVAIQGYDAGLQAPGRCSVLLHLYCKAGNSGTEPYVVAHHFILAHAAAASIYRTKYKATQNGQLGIAFDVMWFEPMSNTTIDIEAAKRAQEFQLGWFADPFFFGDYPATMRARVGERLPRFTADEAAVVKGALDFVGINHYTTYYTRHNNTNIIGTLLNNTLADTGTVSLPFKNGKPIGDRANSIWLYIVPRGMRSLMNYVKERYNSPPVYITENGMDDSNNPFISIKDALKDSKRIKYHNDYLTNLAASIKEDGCDVRGYFAWSLLDNWEWAAGYSSRFGLYFVDYKDNLKRYPKNSVQWFKALLKT
As to B1, the Km in data set [1] was determined as 41.1 ± 4.3 µM; in data set [2] it was 46.1 ± 5.1 µM; in data set [3], 47.5 ± 3.8 µM; in the data set “purified protein”, 3.8253 ± 0.2012 mM; in data set [4], 19.8 ± 0.8 µM; in data set [5], 50.0 ± 2.4 µM. Moreover, in data set [6], the Km was 57.1 ± 7.9 µM. For the same protein, the kcat came out at 151 ± 9.1 s⁻¹ in data set [1]; 121 ± 4.4 s⁻¹ in data set [2]; 156 ± 8.6 s⁻¹ in data set [3]; 285 s⁻¹ in the data set “purified protein”; 116 ± 2.9 s⁻¹ in data set [4]; 146 ± 4.7 s⁻¹ in data set [5]. In addition, the kcat in data set [6] is 112 ± 11.8 s⁻¹. In addition, the kcat/Km in data set [1] turned out to be 3.7e+06 ± 280000 M⁻¹ s⁻¹; in data set [2], 2.64e+06 ± 190000 M⁻¹ s⁻¹; in data set [3], 3.29e+06 ± 150000 M⁻¹ s⁻¹; in the data set “purified protein”, 75000 M⁻¹ s⁻¹; in data set [4] it was 5.85e+06 ± 190000 M⁻¹ s⁻¹; in data set [5], 2.92e+06 ± 50000 M⁻¹ s⁻¹. In addition, in data set [6], the kcat/Km stood at 1.97e+06 ± 120000 M⁻¹ s⁻¹.
